B1: Pop1p (natural protein)
chain: MSGSLSRGNGGKKVLNKNQLLKRNRIRNARSIRAEAVAASSTKTGTPSDLSESGSKLNVDQFISSRQFEVKQLQLAMHNSKAASSTRIFQALPRKLRRRTASHNVRRIPKRMRNRALREMRKSDQQDVLKGSSASSRKAHGLNAKQLYKARMSIKLLRLASKSTSMKLSMPPEVTSSNCHVRQKIKTLKRMIKESSTANPNIKLLNNRMGSYDCTGVNELAPIPKGRVKYTKRQKHFAWLPTHIWNAKRSHMMKRWGYQMVWAPTQKCFKLTHRLGGDTCSSDGALCMDSSYIGTIIVKDKSNDSEGDFLKSIIGKLTAERANLRKYREGQVLFQGLIYSFNEENGEDSTKPLGPCDVFWVQKDTAIIRLHPSIYTQVFNILLQHKEKLTVQDCRYSLASVTLKGAKALESLASCLRSTEYSKSFEQFKMVSMITDHNALPQRCTFAFEAIDPRHLAAPKKLNDSQRKTVNSDDILSLHENYPQDEINAVFNELCDPESRTQSYNNQNTLKEISARRYKLLTATPNSINKTTVPFKESDDPSIPLVIIRRLKTRDWIVVLPWFWLLPLWHLLNRIPRMYHIGLRQFQQIQYENKQLYFPDDYPFTQLGYIENSFYKKEASKTKWDRKPMGKRINFEKIKDIHNTKLPAYSGEIGDFFSSDWRFLQILRNGIDYLQRNDKTLELMDSKKTGQFNAQGVRDINCVNDVLEFCKDYEAKTKAMSLSIEENIPVALCKNRKCQFRTPDSISVNSSSFSLTFFPRCIIAVSCTLLERGHPKDNARIYQVPEKDLEHWLQLAKGVYRPNGRKDHDLKIPLPEVHDLIGFITSGTYHLNCGNGMGIGFIDHHAAIRQPTRYVLIRNVGTNTYRLGEWSKISV
modifications: 32P-phosphate on the RRASV site (bovine heart kinase), in the untagged radiolabelled form only
B2: Pop4p (natural protein)
chain: MDRTQTFIKDCLFTKCLEDPEKPFNENRFQDTLLLLPTDGGLTSRLQRQQRKSKLNLDNLQKVSQLESADKQLEKRDYQRINKNSKIALREYINNCKKNTKKCLKLAYENKITDKEDLLHYIEEKHPTIYESLPQYVDFVPMYKELWINYIKELLNITKNLKTFNGSLALLKLSMADYNGALLRVTKSKNKTLIGLQGIVIWDSQKFFIMIVKGNIIDEIKCIPKKGTVFQFEIPISDDDDSALRYSILGDRFKYRSVDRAGRKFKSRRCDDMLYYIQN
modifications: 32P-phosphate on the RRASV site (bovine heart kinase), in the untagged radiolabelled form only
B3: Pop3p (natural protein)
chain: MSGSLKSLDKKIAKRRQVYKPVLDNPFTNEAHMWPRVHDQPLIWQLLQSSIINKLIHIQSKENYPWELYTDFNEIVQYLSGAHGNSDPVCLFVCNKDPDVPLVLLQQIPLLCYMAPMTVKLVQLPKSAMDTFKSVSKYGMLLLRCDDRVDKKFVSQIQKNVDLLQFPWLNAIKYRPTSVKLLKTTVPIVSKKRQK
modifications: 32P-phosphate on the RRASV site (bovine heart kinase), in the untagged radiolabelled form only
B4: Rpp1p (natural protein)
chain: MLVDLNVPWPQNSYADKVTSQAVNNLIKTLSTLHMLGYTHIAINFTVNHSEKFPNDVKLLNPIDIKRRFGELMDRTGLKLYSRITLIIDDPSKGQSLSKISQAFDIVAALPISEKGLTLSTTNLDIDLLTFQYGSRLPTFLKHKSICSCVNRGVKLEIVYGYALRDVQARRQFVSNVRSVIRSSRSRGIVIGSGAMSPLECRNILGVTSLIKNLGLPSDRCSKAMGDLASLVLLNGRLRNKSHKQTIVTGGGSGNGDDVVNDVQGIDDVQTIKVVKRSMDAEQLGHASKRHKP
modifications: 32P-phosphate on the RRASV site (bovine heart kinase), in the untagged radiolabelled form only

Biological target: the molecule itself
Test: pull-down

Row | Protein | binding result
1 | B1 | binds
2 | B2 | binds
3 | B3 | binds
4 | B4 | binds
